From article doi:10.1101/2020.01.29.926220v1

Legend:
Test in all cases: spectrophotometric hydrolysis, initial rates, Hanes-Woolf
Type in all cases: biochemical, Yersinia mollaretii
Details in all cases: 50 mM MES pH 6.0, 30°C
[1] = tested on: C[C@@H](O)[C@H]1C(=O)N2C(C(=O)O)=C(S[C@@H]3CN[C@H](C(=O)N(C)C)C3)[C@H](C)[C@H]12
[2] = tested on: C[C@@H](O)[C@H]1C(=O)N2C(C(=O)O)=C(SCCN=CN)C[C@H]12
[3] = tested on: C[C@@H](O)[C@H]1C(=O)N2C(C(=O)[O-])=C(SC3Cn4cnc[n+]4C3)[C@H](C)[C@H]12
[4] = tested on: C[C@@H](O)[C@H]1C(=O)N2C(C(=O)O)=C(S[C@@H]3CN[C@H](C(=O)Nc4cccc(C(=O)O)c4)C3)[C@H](C)[C@H]12
[5] = tested on: C[C@@H](O)[C@H]1C(=O)N2C(C(=O)O)=C(S[C@@H]3CN[C@H](CNS(N)(=O)=O)C3)[C@H](C)[C@H]12

Work on YEM-1 (Yersinia mollaretii ATCC 43969) yielded a kcat [1] of over 400 s⁻¹, a Km [2] of 160 µM and a kcat [2] of 480 s⁻¹. For the same substance, the kcat [3] was over 16 s⁻¹, the kcat [4] was over 400 s⁻¹ and the kcat [5] was over 100 s⁻¹.
